# Measured values published in patent publication US20050282743A1, “Molecular interactions in cells” (Arbor Vita Corporation, priority 2001, published 2005).
# Target: GST-PSD95 PDZ domains 1, 2, 3 (Homo sapiens), P78352
# Assay: G' assay
# Conditions: not given
# Note: key of the grades not given here.
# GST-PSD95 PDZ domains 1, 2, 3 (Homo sapiens), P78352, sequence (P78352 62-395): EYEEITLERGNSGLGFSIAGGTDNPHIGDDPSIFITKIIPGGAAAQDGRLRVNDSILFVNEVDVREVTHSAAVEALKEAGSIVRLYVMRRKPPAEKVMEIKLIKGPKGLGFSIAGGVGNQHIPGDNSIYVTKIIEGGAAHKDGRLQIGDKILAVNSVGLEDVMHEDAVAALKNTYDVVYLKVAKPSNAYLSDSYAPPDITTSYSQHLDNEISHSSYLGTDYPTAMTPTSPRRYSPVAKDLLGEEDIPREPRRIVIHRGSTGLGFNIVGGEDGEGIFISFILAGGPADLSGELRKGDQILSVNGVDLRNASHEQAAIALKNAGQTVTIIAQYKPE
row,Binder,Classification [A450 class]
1,VGTLLLERVIFPSVKIATLV (modifications not checked) [AdenoE4 typ9],5
2,PYSELNYETSHYPASPDSWV (modifications not checked) [catenin - delta 2],2
3,QISPGGLEPPSEKHFRETEV (modifications not checked) [TAX],5

# Target: T1, GST-novel PDZ gene PDZ domain 1 (Homo sapiens (Human)), Q9H5P4
# T1 chain: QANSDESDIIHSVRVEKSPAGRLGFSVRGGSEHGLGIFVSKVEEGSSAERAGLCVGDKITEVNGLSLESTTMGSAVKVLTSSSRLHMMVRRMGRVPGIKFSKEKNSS
# Assay: G' assay
# Conditions: not given
row,Binder,Classification [A450 class]
1,PIPAGGCTFSGIFPTLTSPL (modifications not checked) [KIA 1481],1
2,VPGALDYAAFSSALYGESDL (modifications not checked) [a-actinin 2],2

# Target: T2, GST-KIAA0973 PDZ domain 1 (Homo sapiens (Human)), Q9Y2H9
# T2 chain: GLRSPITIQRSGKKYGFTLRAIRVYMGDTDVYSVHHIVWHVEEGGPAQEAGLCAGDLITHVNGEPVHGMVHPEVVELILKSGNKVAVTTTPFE
# Assay: G' assay
# Conditions: not given
row,Binder,Classification [A450 class]
1,PIPAGGCTFSGIFPTLTSPL (modifications not checked) [KIA 1481],2
2,VPGALDYAAFSSALYGESDL (modifications not checked) [a-actinin 2],2

# Target: GST-TAX IP2 PDZ domain 1 [GST: P08515]
# Assay: G' assay
# Conditions: not given
# GST-TAX IP2 PDZ domain 1 [GST: P08515], sequence (P08515 whole entry, the tested form may be a part): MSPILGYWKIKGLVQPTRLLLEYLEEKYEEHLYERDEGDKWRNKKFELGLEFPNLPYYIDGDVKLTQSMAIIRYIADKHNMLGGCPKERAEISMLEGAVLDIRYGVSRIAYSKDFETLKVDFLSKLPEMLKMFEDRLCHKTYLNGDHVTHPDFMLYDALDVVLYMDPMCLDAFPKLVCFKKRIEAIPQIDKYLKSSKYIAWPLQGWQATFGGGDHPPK
row,Binder,Classification [A450 class]
1,VPGALDYAAFSSALYGESDL (modifications not checked) [a-actinin 2],5
2,QISPGGLEPPSEKHFRETEV (modifications not checked) [TAX],2

# Target: T3, GST-NOS1 PDZ domain 1 (Homo sapiens (Human)), P29475
# T3 chain: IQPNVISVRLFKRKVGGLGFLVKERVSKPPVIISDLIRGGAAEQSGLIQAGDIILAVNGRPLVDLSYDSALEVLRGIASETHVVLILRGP
# Assay: G' assay
# Conditions: not given
row,Binder,Classification [A450 class]
1,VGTLLLERVIFPSVKIATLV (modifications not checked) [AdenoE4 typ9],5

# Same assay, conditions: remark: other sources report otherwise
row,Binder,Classification [A450 class]
1,AWDDSARAAGGQGLHVTAL (modifications not checked) [LPAP],1

# Target: T4, GST-MUPP1 PDZ domain 11 (Homo sapiens (Human)), O75970
# T4 chain: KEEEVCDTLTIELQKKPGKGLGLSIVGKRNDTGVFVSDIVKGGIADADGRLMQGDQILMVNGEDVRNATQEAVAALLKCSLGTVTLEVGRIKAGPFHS
# Assay: G' assay
# Conditions: not given
row,Binder,Classification [A450 class]
1,VGTLLLERVIFPSVKIATLV (modifications not checked) [AdenoE4 typ9],5

# Target: GST-KIAA1634 PDZ domain 4 (Homo sapiens (Human)), Q5TCQ9
# Assay: G' assay
# Conditions: not given
# GST-KIAA1634 PDZ domain 4 (Homo sapiens (Human)), Q5TCQ9, sequence (Q5TCQ9 844-945): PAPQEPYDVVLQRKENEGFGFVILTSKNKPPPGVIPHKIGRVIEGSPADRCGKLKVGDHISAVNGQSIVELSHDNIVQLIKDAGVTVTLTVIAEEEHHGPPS
row,Binder,Classification [A450 class]
1,VGTLLLERVIFPSVKIATLV (modifications not checked) [AdenoE4 typ9],4
2,QISPGGLEPPSEKHFRETEV (modifications not checked) [TAX],2

# Target: T5, GST-KIAA0147 PDZ domain 4 (Homo sapiens (Human)), Q14160
# T5 chain: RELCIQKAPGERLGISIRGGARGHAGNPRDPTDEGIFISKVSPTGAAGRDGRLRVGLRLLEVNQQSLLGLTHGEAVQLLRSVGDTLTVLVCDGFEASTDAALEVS
# Assay: G' assay
# Conditions: not given
row,Binder,Classification [A450 class]
1,PYSELNYETSHYPASPDSWV (modifications not checked) [catenin - delta 2],1
2,QISPGGLEPPSEKHFRETEV (modifications not checked) [TAX],1

# Target: GST-KIAA1634 PDZ domain 1 (Homo sapiens (Human)), Q5TCQ9
# Assay: G' assay
# Conditions: not given
# GST-KIAA1634 PDZ domain 1 (Homo sapiens (Human)), Q5TCQ9, sequence (Q5TCQ9 401-502): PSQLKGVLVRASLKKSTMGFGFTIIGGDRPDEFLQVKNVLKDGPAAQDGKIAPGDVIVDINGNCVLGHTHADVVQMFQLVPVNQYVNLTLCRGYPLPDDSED
row,Binder,Classification [A450 class]
1,VGTLLLERVIFPSVKIATLV (modifications not checked) [AdenoE4 typ9],5
2,PIPAGGCTFSGIFPTLTSPL (modifications not checked) [KIA 1481],2
3,QISPGGLEPPSEKHFRETEV (modifications not checked) [TAX],5

# Target: T6, GST-EZRIN Binding Protein 50 PDZ domain 1 (Homo sapiens (Human)), O14745
# T6 chain: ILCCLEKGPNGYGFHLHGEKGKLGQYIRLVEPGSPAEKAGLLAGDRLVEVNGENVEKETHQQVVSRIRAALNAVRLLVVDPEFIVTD
# Assay: G' assay
# Conditions: not given
row,Binder,Classification [A450 class]
1,PIPAGGCTFSGIFPTLTSPL (modifications not checked) [KIA 1481],2
2,AWDDSARAAGGQGLHVTAL (modifications not checked) [LPAP],5

# Target: T7, GST-NeDLG PDZ domains 1, 2, Q92796
# T7 chain: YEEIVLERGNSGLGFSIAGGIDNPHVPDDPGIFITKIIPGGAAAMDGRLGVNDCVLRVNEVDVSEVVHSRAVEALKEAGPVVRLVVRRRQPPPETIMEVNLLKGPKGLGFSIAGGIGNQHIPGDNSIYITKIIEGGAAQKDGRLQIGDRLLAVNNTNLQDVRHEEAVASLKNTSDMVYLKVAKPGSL
# Assay: G' assay
# Conditions: not given
row,Binder,Classification [A450 class]
1,VGTLLLERVIFPSVKIATLV (modifications not checked) [AdenoE4 typ9],5
2,QISPGGLEPPSEKHFRETEV (modifications not checked) [TAX],5

# Target: GST-KIAA0147 PDZ domain 1 (Homo sapiens (Human)), Q14160
# Assay: G' assay
# Conditions: not given
# GST-KIAA0147 PDZ domain 1 (Homo sapiens (Human)), Q14160, sequence (Q14160 other isoform, or with tags, fused parts or gaps): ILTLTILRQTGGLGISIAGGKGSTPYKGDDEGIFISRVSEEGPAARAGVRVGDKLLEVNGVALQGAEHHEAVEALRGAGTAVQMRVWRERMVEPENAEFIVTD
row,Binder,Classification [A450 class]
1,PIPAGGCTFSGIFPTLTSPL (modifications not checked) [KIA 1481],2
2,VPGALDYAAFSSALYGESDL (modifications not checked) [a-actinin 2],2
3,QISPGGLEPPSEKHFRETEV (modifications not checked) [TAX],5
4,AWDDSARAAGGQGLHVTAL (modifications not checked) [LPAP],3

# Target: T8, GST-NeDLG PDZ domain 3 (Mus musculus (Mouse)), P70175
# T8 chain: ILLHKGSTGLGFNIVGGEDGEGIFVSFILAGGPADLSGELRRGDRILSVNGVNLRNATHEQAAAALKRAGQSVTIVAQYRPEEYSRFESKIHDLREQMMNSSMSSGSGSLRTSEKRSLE
# Assay: G' assay
# Conditions: not given
row,Binder,Classification [A450 class]
1,PYSELNYETSHYPASPDSWV (modifications not checked) [catenin - delta 2],1
2,QISPGGLEPPSEKHFRETEV (modifications not checked) [TAX],5

# Target: T9, GST-MUPP1 PDZ domain 10 (Homo sapiens (Human)), O75970
# T9 chain: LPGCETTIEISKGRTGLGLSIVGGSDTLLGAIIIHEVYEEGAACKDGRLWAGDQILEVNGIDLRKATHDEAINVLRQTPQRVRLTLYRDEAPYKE
# Assay: G' assay
# Conditions: not given
row,Binder,Classification [A450 class]
1,VGTLLLERVIFPSVKIATLV (modifications not checked) [AdenoE4 typ9],1

# Target: T10, GST-DLG2 PDZ domain 2 (Homo sapiens (Human)), Q15700
# T10 chain: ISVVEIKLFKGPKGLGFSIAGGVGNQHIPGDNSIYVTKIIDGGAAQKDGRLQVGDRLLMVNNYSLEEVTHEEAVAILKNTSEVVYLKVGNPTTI
# Assay: G' assay
# Conditions: not given
row,Binder,Classification [A450 class]
1,VGTLLLERVIFPSVKIATLV (modifications not checked) [AdenoE4 typ9],5
2,PYSELNYETSHYPASPDSWV (modifications not checked) [catenin - delta 2],1
3,QISPGGLEPPSEKHFRETEV (modifications not checked) [TAX],5

# Target: GST-BAI-1 Associated Protein PDZ domain 3 (Homo sapiens (Human)), Q96QZ7
# Assay: G' assay
# Conditions: not given
# GST-BAI-1 Associated Protein PDZ domain 3 (Homo sapiens (Human)), Q96QZ7, sequence (Q96QZ7 other isoform, or with tags, fused parts or gaps): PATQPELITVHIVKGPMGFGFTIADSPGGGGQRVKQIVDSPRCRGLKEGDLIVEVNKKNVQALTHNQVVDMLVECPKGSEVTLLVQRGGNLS
row,Binder,Classification [A450 class]
1,VGTLLLERVIFPSVKIATLV (modifications not checked) [AdenoE4 typ9],5
2,PYSELNYETSHYPASPDSWV (modifications not checked) [catenin - delta 2],1
3,QISPGGLEPPSEKHFRETEV (modifications not checked) [TAX],1

# Target: T11, GST-ZO-1 PDZ domain 1 (Rattus norvegicus (Rat)), A0A0G2
# T11 chain: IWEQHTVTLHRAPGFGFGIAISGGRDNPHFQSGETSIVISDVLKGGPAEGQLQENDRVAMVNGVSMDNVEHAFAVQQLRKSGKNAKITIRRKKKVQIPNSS
# Assay: G' assay
# Conditions: not given
row,Binder,Classification [A450 class]
1,VGTLLLERVIFPSVKIATLV (modifications not checked) [AdenoE4 typ9],2

# Target: T12, GST-KIAA0147 PDZ domain 3 (Homo sapiens (Human)), Q14160
# T12 chain: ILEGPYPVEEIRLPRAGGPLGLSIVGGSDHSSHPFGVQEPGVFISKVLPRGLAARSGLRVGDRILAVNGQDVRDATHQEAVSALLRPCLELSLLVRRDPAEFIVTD
# Assay: G' assay
# Conditions: not given
row,Binder,Classification [A450 class]
1,VPGALDYAAFSSALYGESDL (modifications not checked) [a-actinin 2],3
2,QISPGGLEPPSEKHFRETEV (modifications not checked) [TAX],1
